# Assay results published in the nanobody polyreactivity screen of Harvey et al. (2022).
# Assay: yeast display, Sf9 membrane polyspecificity reagent, FACS + sequencing; frameworks hold sequencing errors
# Outline: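 Sorting gates, low and high (top ~1%), were placed on anti-HA fluorescence to track expression and on streptavidin fluorescence to track reagent binding. A clone's polyreactivity label is taken from the gate it came out of. The reagent was 10% biotinylated, detergent-solubilized Sf9 membrane, applied for 1 hour at 4 °C to galactose-induced yeast display cells.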
row,Sequence,polyreactivity (PSR sort gate)
1,QVQRVESGGGLVQAGGSLRLSCAASGSIFSVYAMGWYRQAPGKERELVAAITSSGGSTYYADSVKGRFTISRDNAKNTVNFQMKSLKPEDTAVYYCAADKYLRRRSWYRYGYWGQGTQVTVSS,high polyreactivity
2,QVHLVESGGGLVQAGGSLRLTCAASGSTFDINAMRWYRQAPGKERELVASITFSGGSTYYADSVKGRFTISRDNAKNTVYLQMNSLKPEDTAVYYCAADSSGEYPGGYWGQGTQVTVSS,low polyreactivity
3,QVQLVESGGGLVQAGGSLRLSCAASGLIFLYNAMGWYRQAPGKERELVAAISRSGGSTYYADSVKGRFTISRDNAKNTVYLQMNSLKPEDTAVYYCNARWPLGVSRGGMGYWGQGTQVTVSS,high polyreactivity
4,QVQLVESGGGLVQAGGSLRLSCAASGRTFASNAMGWYRQAPGKERELVAAITISGGRTYYADSVKGRFTISRDNAKNTVYLQMNSLKPEDTAVYYCAAAKHSWRPSYYWGGYWGQGTQVTVSS,low polyreactivity
5,QVQLVESGGGLVQAGGSLRLSCAASGRTFYGYAMGLYRQAPGKERELGASIRQSAGRTYYADSVKGRFTISRDNAMNTVYLQMNSLNPEDTAVYYCAASIFLRSFYQQGNYWGQGTQVTVSS,high polyreactivity
6,QVQLVESGGGLVQAGGSLRLSCAASGITFSGYGMGWYRQAPGKERELVAAISRSGGSTYYADSVKGRFTISRDNAKNTVYLQMNSLKPEDTAVYYCATASRTSRTGWAGYYWGQGTQVTVSS,high polyreactivity
7,QVQLVESAGGLVQAGGSLRLTCAASGRTFTFNTMGWYRQAPGKERELVAAIDGDGTTNYADSVKGRFTISRDNAKNTVYLQMNSLKPEDTAVYYCAADFLYSFWYEPTFDYWGQGTQVTVSS,low polyreactivity
8,QVQLVESGGGLVQAGGSLRLSCAASGITFNSYAMGWYRQAPGKERELVAAISGSGSSTYYADSVKGRFTISRDNAKNTVYLQMNSLKPEDTAVYYCAATVYSSWTYYTHEYWGQGTQVTVSS,low polyreactivity
9,QVQLVESGGGLVQAGGSLRLSCAASGSTFNGYVMGWYRQAPGKERELVAAISRSGGSTYYADSVKGRFTISRDNAKNNVYLQMYSLKPEDTAVYSCAKGGYQHYWGQGTQVTVSS,high polyreactivity
10,QVQLVESGGGLVQAGGSLRLICAASGFIFPVNAMGWYRQAPGKERELVAAITSSGGDTYYADSVKGRFTISRDNAKNTVYLQMNSLKPEDTAVYYFAAEYTQEQEDYDYWGQVTQVTVSS,low polyreactivity
11,QVQLVESGGGLVQAGGSLRLSCAASGITFKWNDMGWYRQAPGKEREFVAAITGSTGSTFYADSVKGRFTISRDNAKNTVYLQMISLKPEDTAVYYCAAGPWFYYWGQGTQVTVSS,low polyreactivity
12,QVQLVESGGGLVQAGGSLRLSCAASGLIFYRYAMGWYRQAPGKERELVAVISWIGCNTYYADSVKGRFTISRDNAKNTVYLQMNSLKPEDTAVYYCAVATGPVSYRRYYWGQGTQVTVSS,high polyreactivity
13,QVQLVESGGGLVQAGGSLRLSCAATGLTFYLNAMGWYRQAPGKEREFVAAINYSVGSTYYADSVKGRFTISRDNAKNTVYLQMNSLKPEDTAVFYCAADGYLYFKVDNEYWGQGTQVTVSS,low polyreactivity
14,QVQLVESGGGLVQAGGSLRLSCAASGSIFYRNALGWYRQAPGKERELVAAISSDGSTNYADSVKGRFTISRDNAKNTVYLQLNSLKPEDTAVYYCAAPWTQILDYWGQGTQVTVSS,low polyreactivity
15,QVQLVDSGGGLVQAGGSLRLSCAASGYIDGTYAMGWYRQAPRKERDLVASISSSGGSTYYADSVNGRFTISRDNAKNTVYLQMNSLKPEDTAVYYCNAERKIIAYLWWYDYWGQGTQVTVSA,low polyreactivity
16,QVQIVESGGGLVQAGGSLSLSCAASGYNFYSYAMGWYRQAPGTKRELVAAITNSGGSTYYADSVKGRFTISRDNAKNTVYLQMNSLKPEDTAVYSCNASYWRAYSYKYDYWGQGTQVTVSS,high polyreactivity
17,QVQLVESGGGLVQAGGSLRLSCAASGRTLTRYTMGWYRQAPGKERELVATISRSGGNTHYADSVKGRFTISRDNAKNTVYLQMNSLKPEDTAVYYCNAVRYAIYGYDYWGQGTQVTVSS,high polyreactivity
18,QVQLVESGGGLVQAGGSLRLICAASGSTFKYNAMGWYRQAPGKERELVAAITYSGSSTYYADSVKGRFTISRDNAKNTVYLQMNSLKPEDTAVYYCAAGDLAKYRSYSYYYWGQGTQVTLSS,high polyreactivity
19,QVQLVESGGGLVQAGGSLRLSCAASGITFANYAMGWYRQAPGKERELVAAISWSDTSTYADSVKGRFTISRDNAKNTVYLQMNSLKPEDTAVYYCAADYHTPSSFAPIELYDYWGQGTQVTVSS,low polyreactivity
20,QVQLVESGGGLVQAGGTLRLSCAASGRIFSKNAMGWYRQAPGKERELVAAMSSSGTSTYYADSVKGRFTISRDNAKNTVYLQINSLKPEDTAVYYCAARVSLTTYSYYSWGQGTQLTVSS,high polyreactivity
21,QVQLVDSGGGLVQAGGSLRLSCAASGRIFYAYDMGWYRQAPGKERELVADITSSGSTNYADSVKGRFTISRDNAKNTVYLQMNSLKPEDTAVYYCNTEPSGYESGYWGQGTQVTVSS,low polyreactivity

row,Sequence,polyreactivity (PSR sort gate)
1,QVQLVESGGGLVQAGGSLRLSCAASGRTFGLNAMGWYRQAPGKERELVAAISSSGGSTYYADSVKGRFTISRDNAKNTVYLQMNSLKPEDTAVYYSAKVLYLYGTAYYYWGQGTEVTVSS,high polyreactivity
2,QVQLVESGGGLVQAGGSLRLSCAASGSIFPGYAMGWYRQAPGKERELVAAISSGGSTNYADSVKGRFTISRDNAKNTVYLQMNSLKPEDTAVYYCAARVWRYHVYAFYYWGQGTQVTVSS,high polyreactivity
3,QVQLVESVGGLVQAGGSLRLSCAASGRIFHRYTMGWYRQAPGKEREFVAAITTRAGSTYYADSVKGRFTISRDNAKNTVYLQMNSLKPEDTAVYYCNIRRHSLYGGTTTRYDYWGQGTQVTVSS,high polyreactivity
4,QVQLVESGGGLVQAGGSLRLSCAASGFTFSKYDMGWYRQATGKERELVAAISRSAGSTYYADSVKGRFTISRDHAKNTVYLQMNSLKPEDTAVYYCARDNPRSPSGYNYWGQGTQVTVSS,high polyreactivity
5,QVQLVESGGGLVQAGGSLRVSCAASGRTFYANVRGWYRQAPGKERELGAAIAASGGSTYYADSVKGRVTISRDNAKNTVYLQMNRLKPEDTAGYYCYKVVRWPGTYLRYVISDLDYWGQGSQVTVSS,low polyreactivity
6,QVQLVESGGGLVQAGGSLRLSCAASGIIFYRYAMGWYRQAPGKERELVAAITWRGGSTYYADSVKGRFTISRDNAMNTVYLQMNSLKPEDTAVYYCAARRRATYELDYWGQGTQVNVSS,high polyreactivity
7,QVQLVESGGGLVQAGGSLRLSCAASGSTFDVYAMGWYRQAPGKERELVAAIRSSGGSTFYADSVKGRFTISRDNAKNIVYLQMISLNPEDTAVYYCAARSFVVSGYNKYYEYGYWGQGTHVTVSS,low polyreactivity
8,QVQLVESGGGLVQAGGSLRLSCAASGFTFNRYAMGWYIEAPGKERELVASITTGGRTNYADSVKGRFTISRDNAKNTVYLQMNSLKPVDTAVYYCAADYCYFYRYYYWGQGTQVTVSS,high polyreactivity
9,QVQLVESGGGLVQARGSLRLSCPASGSIFSLNAMGWYRQAPGKERELVASISRGGSTNYADSVKGRFTISRDNAKNTVYLQMNSLKPEDTAVYYCAAYWYYYTKSQSSYRFDYWGQGTQVTVSS,low polyreactivity
10,QVQLVESGGGLLQAGGSLRVSCAASGSTLVGNTMGWYRQAPGKESELLAAITGVGSTNYADSVKGRFTISRDNAKNSVYLQMNSLKPEDTAVYSCAAEYSYTYIVSYLYDMDYWGQATQVTVSS,low polyreactivity
11,QVQLVESGGGLVQAGGSLRLSCAASGSIFYYAMGWYRQAPGKERELVAAITTGDGTNYADSVKGRFTISRDNAKNTVYLQMNSLKPEDTAVYYCNSLPYQVWKRYSWGQGTQVTVSS,low polyreactivity
12,QVQLVESGGGLVQAGGSLRLSCADSGSILIYNAMGWYRQAPGKERELVAGISRRGASTYYADSVKGRFTISRDNAKNTVSLQMNSLKQEDTAVYYCAALGKYIVAWSGDYWGQGTQVTVSS,low polyreactivity
13,QVQLVESGGGLVQAGGSLRLSCAASGFTFPWYAMGWYRQAPGKERELVATITRGGSTYYADSVKGRFTISRDNAKNTVYLQMNSLKPEDTAVYYCAVTYWRYHSYSPYDYWGQGTQVTVSS,high polyreactivity
14,QVQLVESGGGLVQAGGSLRVSCAASGSIFDVYTMGWYRQAPGKERELVAAISKRSGRTYYADSVKGRFTISRDNAKNTVYLQMNSLKPEDTAVYYCAKDFGYWGQGTQVTVSS,low polyreactivity
15,QVQLVESGAGLVQAGGSRRLSCAASGSIFYRYTMGWYRQAPGKERELVAGITFGAGTYYADSVKGRFTISRDNAKNTVYLQMNSLKPEDTAVYYCNAIHLPRNRDYWGQGTQVTVSS,low polyreactivity
16,QVQLVESGGGLVQAGGSLRLSCAASGRTLRTYAMGWSRQAPGKERELVAAITSSGGRTYYADSVKGRFTISRDNAKNTVYLQMNSLKPEDTAVYYCAAARYYYGGDYWGQGTQVTVSS,high polyreactivity
17,QVQLVESGGGLVQAGGSLRLSCSASGSTFPSNAMGWYRQAPGKERELVAAIRGRGGSTYYADSVKGRFTISRDNAKNTVYLQMNSLKPEDTAVYYCAKKVRSYVRWEYDYWGQGTQVTVSS,low polyreactivity
18,QVQLEESGGGLVQEGGSLRLICAASGRIFGSYVMGWYRQAPGKERELVAAISRRGGSTYYADSVKGRFTISRDNAKNTVYLQMNSLKTEVTAVYYCAAEFSPSSNPYDYWGQGTQVTVSS,high polyreactivity
19,QVQLVESGGGLVQAGGSLRVSCAASGRTFYRKAMGWYRHAPGKERSLVAAISSGGSTTYADSVKGRFTISRDNAKNTVYLQMISLKPEDTAVYYCAARSHAGSVCPRLKEYDFWGQGTQVTVSS,low polyreactivity
20,QVQLVESGGGLVQAGGSLSLSCAASGRNFAYYAMGWYRQAPGKERELVAGISQRGSRTYYADSVKGRFTISRDNAKNTVYLQMNSLKPEDTAVYYCAARDRRSVTMDYWGQGTQVTVSS,high polyreactivity
